{
  "source": "paper PMC3789691",
  "test_system": "T1, LexA2 recombinant (Leptospira interrogans serovar Copenhageni), ORF:e6531adf",
  "T1 sequence": "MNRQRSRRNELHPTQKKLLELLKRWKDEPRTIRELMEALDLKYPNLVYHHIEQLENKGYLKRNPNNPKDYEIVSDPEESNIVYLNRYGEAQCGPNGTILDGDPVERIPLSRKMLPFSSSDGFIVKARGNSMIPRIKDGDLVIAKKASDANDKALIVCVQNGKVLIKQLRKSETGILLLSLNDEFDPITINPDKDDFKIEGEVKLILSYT",
  "assay": "EMSA",
  "settings": "Roche DIG Gel Shift Kit binding buffer (composition and pH not given), poly[d(A-T)], 1.55 fmol probe, 20 min on ice; 5% native gel, 0.5x TBE, 4 C",
  "data": [
    {"sequence": "GTTCATTTCTTCTGGATCGTTGCCTATTCATACTACTAAGTACATGATTAGGAAAATTAACTTAAAAAGCAAGAAAAAAATCAACTCGCATCTTGACATTTAAACTTTGTACAAGTATAATTACAATTAAAGCAATGGGACATATTCCCAAAGGAGACATGAATGTCTAAGAACATTAAAGTTACCAAAGAATCGAATACAGGGCTCAATAAAGAATTCTACGATCCTTCCAGAGGAAAGTC (double strand) [lexA2up]", "values": [
      {"measurement": "binding", "result": "binds"}
    ]}
  ]
}
